B1: AtGH3-12: 4-substituted benzoates-glutamate ligase GH3.12 from Arabidopsis thaliana, His-tagged (protein, listed as Arabidopsis thaliana)
chain: MKPIFDINETFEKQLKDLTSNVKSIQDNLLEEIITPNTKTEYLQRFLIDRFDKELFKKNVPIVSYEDIKPYLDRVVNGESSDVISARTITGFLLSSGTSGGAQKMMPWNNKYLDNLTFIYDLRMQVITKHVKGVEEGKGMMFLFTKQESMTPSGLPARVATSSYFKSDYFKNRPSNWYYSYTSPDEVILCPNNTESLYCHLLCGLVQRDEVVRTGSIFASVMVRAIEVLKNSWEELCSNIRSGHLSNWVTDLGCQNSVSLVLGGPRPELADTIEEICNQNSWKGIVKRLWPNTKYIETVVTGSMGQYVPMLNYYCNDLPLVSTTYGSSETTFGINLDPLCKPEDVSYTFMPNMSYFEFIPMDGGDKNDVVDLEDVKLGCTYEPVVTNFAGLYRMRVGDIVLVTGFYNNAPQFKFVRRENVVLSIDSDKTNEEDLFKAVSQAKLVLESSGLDLKDFTSYADTSTFPGHYVVYLEVDTKEGEEKETAQFELDEEALSTCCLVMEESLDNVYKRCRFKDGSIGPLEIRVVRQGTFDSLMDFFISQGASTGQYKTPRCIKSGKALQVLETCVVAKFFSI
modifications: His-tag
notes: 4-substituted benzoates-glutamate ligase GH3.12 from Arabidopsis thaliana, His-tagged
B2: AtGH3-6: indole-3-acetic acid-amido synthetase GH3.6 from Arabidopsis thaliana, expressed in E. coli with N-terminal His-tag (protein, listed as Arabidopsis thaliana)
chain: MPEAPKIAALEVSDESLAEKNKNKLQFIEDVTTNADDVQRRVLEEILSRNADVEYLKRHGLEGRTDRETFKHIMPVVTYEDIQPEINRIANGDKSQVLCSNPISEFLTSSGTSGGERKLMPTIEEELDRRSLLYSLLMPVMDQFVPGLDKGKGMYFLFIKSESKTPGGLPARPVLTSYYKSSHFKNRPYDPYTNYTSPNQTILCSDSYQSMYSQMLCGLCQHKEVLRVGAVFASGFIRAIKFLEKHWPELARDIRTGTLSSEITDSSVREAVGEILKPDPKLADFVESECRKTSWQGIITRLWPNTKYVDVIVTGTMSQYIPTLDYYSNGLPLVCTMYASSECYFGVNLRPLCKPSEVSYTLIPNMAYFEFLPVHRNSGVTSSISLPKALTEKEQQELVDLVDVKLGQEYELVVTTYAGLYRYRVGDVLSVAGFKNNAPQFSFICRKNVVLSIDSDKTDEVELQNAVKNAVTHLVPFDASLSEYTSYADTSSIPGHYVLFWELCLNGNTPIPPSVFEDCCLTIEESLNSVYRQGRVSDKSIGPLEIKMVESGTFDKLMDYAISLGASINQYKTPRCVKFAPIIELLNSRVVDSYFSPKCPKWSPGHKQWGSN
modifications: N-terminal His-tag
notes: indole-3-acetic acid-amido synthetase GH3.6 from Arabidopsis thaliana, expressed in E. coli with N-terminal His-tag
B3: AtGH3-5: indole-3-acetic acid-amido synthetase GH3.5 from Arabidopsis thaliana, His-tagged (protein, listed as Arabidopsis thaliana)
chain: MPEAPKKESLEVFDLTLDQKNKQKLQLIEELTSNADQVQRQVLEEILTRNADVEYLRRHDLNGRTDRETFKNIMPVITYEDIEPEINRIANGDKSPILSSKPISEFLTSSGTSGGERKLMPTIEEELDRRSLLYSLLMPVMSQFVPGLENGKGMYFLFIKSESKTPGGLPARPVLTSYYKSSHFKERPYDPYTNYTSPNETILCSDSYQSMYSQMLCGLCQHQEVLRVGAVFASGFIRAIKFLEKHWIELVRDIRTGTLSSLITDPSVREAVAKILKPSPKLADFVEFECKKSSWQGIITRLWPNTKYVDVIVTGTMSQYIPTLDYYSNGLPLVCTMYASSECYFGVNLRPLCKPSEVSYTLIPSMAYFEFLPVHRNNGVTNSINLPKALTEKEQQELVDLVDVKLGQEYELVVTTYAGLCRYRVGDLLRVTGFKNKAPQFSFICRKNVVLSIDSDKTDEVELQNAVKNAVTHLVPFDASLSEYTSYADTSSIPGHYVLFWELCLDGNTPIPPSVFEDCCLAVEESFNTVYRQGRVSDKSIGPLEIKIVEPGTFDKLMDYAISLGASINQYKTPRCVKFAPIIELLNSRVVDSYFSPKCPKWVPGHKQWGSN
modifications: His-tag
notes: indole-3-acetic acid-amido synthetase GH3.5 from Arabidopsis thaliana, His-tagged

Key:
Type in all cases: biochemical
[1] = Synthesis of N-caprinoylamino acid using purified acylamino acid synthetase, UPLC-MS detection; parameters: key: +: Detected; −: Not detected; conditions: +ATP
Outline: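 Purified enzyme (50 μg) with 5 mM amino acid, 5 mM sodium caprate, 10 mM ATP, 10 mM MgCl2, 1 mM DTT in Tris-HCl pH 8.0, 24 h at 25° C; product detected by UPLC-MS (ESI-negative) as the N-caprinoyl amino acid mass signal.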

[2] = Synthesis of N-lauroylamino acid / N-lauroylamino acid derivative using purified acylamino acid synthetase, UPLC-MS detection; parameters: key: +: Detected; −: Not detected; conditions: +ATP
[3] = Analysis of ATP dependency of acylamino acid synthetase; conditions: L-Asp and sodium caprate
Description: 0.25 mL of a reaction solution containing 50 mM Tris-HCl, 5 mM amino acid, 5 mM sodium caprate, 10 mM or 0 mM ATP, 10 mM MgCl2, 1 mM DTT, 50 μg of the purified enzyme, pH 8.0 was incubated at 25° C. for 24 hours. As the amino acid, L-Asp and Gly were used in AtGH3-6 and CfHP, respectively. After completion of the reaction, 0.8 mL of the reaction stop solution (1% (v/v) phosphoric acid, 75% (v/v) methanol) was added to 0.2 mL of the reaction solution, and the mixture was filtrated through the filter followed by being subjected to the UPLC-MS analysis to quantify a produced N-caprinoylamino acid by detection at UV 210 nm. The condition for the UPLC-MS analysis is as described in Example 2. As a result of the analysis, 3.8 mM and […] of the N-caprinoylamino acids were detected in AtGH3-6 and CfHP, respectively in the presence of ATP. However, in the absence of ATP, no signal of the molecular weight corresponding to the N-caprinoylamino acid was detected when any of AtGH3-6 and CfHP was used.

[4] = substrates GABA and sodium caprate
[5] = substrates Gly and sodium caprate
[6] = substrates L-Ala and sodium caprate
[7] = substrates L-Arg and sodium caprate
[8] = substrates L-Asn and sodium caprate
[9] = substrates L-Asp and sodium caprate
[10] = substrates L-Cys and sodium caprate
[11] = substrates L-Gln and sodium caprate
[12] = substrates L-Glu and sodium caprate
[13] = substrates L-His and sodium caprate
[14] = substrates L-Ile and sodium caprate
[15] = substrates L-Leu and sodium caprate
[16] = substrates L-Lys and sodium caprate
[17] = substrates L-Met and sodium caprate
[18] = substrates L-Phe and sodium caprate
[19] = substrates L-Pro and sodium caprate
[20] = substrates L-Ser and sodium caprate
[21] = substrates L-Thr and sodium caprate
[22] = substrates L-Trp and sodium caprate
[23] = substrates L-Tyr and sodium caprate
[24] = substrates L-Val and sodium caprate
[25] = substrates β-Ala and sodium caprate
[26] = substrates Sarcosine and sodium laurate
[27] = substrates Taurine and sodium laurate

| Molecule | signal of molecular weight corresponding to N-caprinoyl amino acid [1, 4] | signal of molecular weight corresponding to N-caprinoyl amino acid [1, 5] | signal of molecular weight corresponding to N-caprinoyl amino acid [1, 6] | signal of molecular weight corresponding to N-caprinoyl amino acid [1, 7] | signal of molecular weight corresponding to N-caprinoyl amino acid [1, 8] | signal of molecular weight corresponding to N-caprinoyl amino acid [1, 9] | signal of molecular weight corresponding to N-caprinoyl amino acid [1, 10] | signal of molecular weight corresponding to N-caprinoyl amino acid [1, 11] | signal of molecular weight corresponding to N-caprinoyl amino acid [1, 12] | signal of molecular weight corresponding to N-caprinoyl amino acid [1, 13] | signal of molecular weight corresponding to N-caprinoyl amino acid [1, 14] | signal of molecular weight corresponding to N-caprinoyl amino acid [1, 15] | signal of molecular weight corresponding to N-caprinoyl amino acid [1, 16] | signal of molecular weight corresponding to N-caprinoyl amino acid [1, 17] | signal of molecular weight corresponding to N-caprinoyl amino acid [1, 18] | signal of molecular weight corresponding to N-caprinoyl amino acid [1, 19] | signal of molecular weight corresponding to N-caprinoyl amino acid [1, 20] | signal of molecular weight corresponding to N-caprinoyl amino acid [1, 21] | signal of molecular weight corresponding to N-caprinoyl amino acid [1, 22] | signal of molecular weight corresponding to N-caprinoyl amino acid [1, 23] | also measured |
| --- | --- | --- | --- | --- | --- | --- | --- | --- | --- | --- | --- | --- | --- | --- | --- | --- | --- | --- | --- | --- | --- |
| B1 | + | + | + | + | + | + | + | + | + | + | + | + | + | + | + | + | + | + | + | + | signal of molecular weight corresponding to N-caprinoyl amino acid [1, 24]: +; signal of molecular weight corresponding to N-caprinoyl amino acid [1, 25]: +; signal of molecular weight corresponding to N-lauroyl amino acid derivative [2, 26]: −; signal of molecular weight corresponding to N-lauroyl amino acid derivative [2, 27]: + |
| B2 | + | + | + | + | + | + | + | + | + | + | + | + | + | + | + | + | + | + | + | + | signal of molecular weight corresponding to N-caprinoyl amino acid [1, 24]: +; signal of molecular weight corresponding to N-caprinoyl amino acid [1, 25]: +; signal of molecular weight corresponding to N-lauroyl amino acid derivative [2, 26]: +; signal of molecular weight corresponding to N-lauroyl amino acid derivative [2, 27]: +; signal of molecular weight corresponding to N-caprinoyl amino acid ([3]; in the absence of ATP): no signal; N-caprinoylamino acid detected ([3]; in the presence of ATP (10 mM), UV 210 nm): 3.8 mM |
| B3 | + | + | + | + | + | + | + | + | + | + | + | + | + | + | + | + | + | + | + | + | signal of molecular weight corresponding to N-caprinoyl amino acid [1, 24]: +; signal of molecular weight corresponding to N-caprinoyl amino acid [1, 25]: +; signal of molecular weight corresponding to N-lauroyl amino acid derivative [2, 26]: +; signal of molecular weight corresponding to N-lauroyl amino acid derivative [2, 27]: + |
